Data published in the Immune Epitope Database (IEDB).

How the values were obtained:
HLA-A*01:01 = experiment: IEDB peptide-MHC binding, purified MHC/direct/fluorescence; filed as Kd, often an IC50 or EC50 that approximates it; ≥ and ≤ were set here for values at or beyond the usual limits of such assays
HLA-A*02:01 [1] = experiment: as above
HLA-A*26:01 [2] = experiment: as above; settings: source organism: Variola virus
HLA-A*26:02 [3] = experiment: as above; settings: source organism: Variola virus
HLA-A*68:02 [4] = experiment: as above; settings: source organism: Aracatuba virus
HLA-A*69:01 [5] = experiment: as above; settings: source organism: Aracatuba virus
HLA-B*07:02 = experiment: as above
HLA-B*08:01 = experiment: as above; settings: source organism: Variola virus
HLA-B*08:02 = experiment: as above; settings: source organism: Variola virus
HLA-B*15:01 [6] = experiment: as above
HLA-B*15:17 [7] = experiment: as above; settings: source organism: Aracatuba virus
HLA-B*18:01 [8] = experiment: as above
HLA-B*27:05 = experiment: as above; settings: source organism: Aracatuba virus
HLA-B*38:01 = experiment: as above
HLA-B*39:01 [9] = experiment: as above
HLA-B*40:01 = experiment: as above
HLA-B*46:01 [10] = experiment: as above
HLA-B*57:01 [11] = experiment: as above
HLA-B*58:01 = experiment: as above
HLA-A*30:01 = experiment: IEDB peptide-MHC binding, purified MHC/competitive/fluorescence; filed as Kd, often an IC50 or EC50 that approximates it; ≥ and ≤ were set here for values at or beyond the usual limits of such assays; settings: source organism: Rabbitpox virus
HLA-B*48:01 [12] = experiment: as above; settings: source organism: Rabbitpox virus
HLA-A*02:01 [13] = experiment: as above
HLA-A*02:12 = experiment: as above; settings: source organism: Giardia lamblia ATCC 50803
HLA-A*02:19 = experiment: as above
HLA-A*03:01 = experiment: as above
HLA-A*23:01 = experiment: as above
HLA-A*24:03 = experiment: as above
HLA-A*26:01 [14] = experiment: as above
HLA-A*29:02 = experiment: as above
HLA-B*15:01 [15] = experiment: as above
HLA-B*18:01 [16] = experiment: as above
HLA-B*27:03 = experiment: as above
HLA-B*39:01 [17] = experiment: as above; settings: source organism: Giardia lamblia ATCC 50803
HLA-B*46:01 [18] = experiment: as above
HLA-B*51:01 = experiment: as above
HLA-B*57:01 [19] = experiment: as above
HLA-B*08:03 = experiment: IEDB peptide-MHC binding, purified MHC/direct/fluorescence; filed as Kd, often an IC50 or EC50 that approximates it; ≥ and ≤ were set here for values at or beyond the usual limits of such assays; settings: source organism: Ravn virus - Ravn, Kenya, 1987
HLA-B*48:01 [20] = experiment: as above; settings: source organism: Ebola virus - Mayinga, Zaire, 1976
HLA-A*26:02 [21] = experiment: IEDB peptide-MHC binding, purified MHC/competitive/fluorescence; filed as Kd, often an IC50 or EC50 that approximates it; ≥ and ≤ were set here for values at or beyond the usual limits of such assays; settings: source organism: Zaire ebolavirus
HLA-A*68:02 [22] = experiment: as above
HLA-A*02:16 = experiment: as above; settings: source organism: Bacillus anthracis str. A0488
HLA-A*69:01 [23] = experiment: as above; settings: source organism: Bacillus anthracis str. A0488
HLA-B*15:17 [24] = experiment: as above; settings: source organism: Bacillus anthracis str. A0488
[25] = source organism: Aracatuba virus
[26] = source organism: Giardia lamblia ATCC 50803
[27] = source organism: Ebola virus - Mayinga, Zaire, 1976
[28] = source organism: Zaire ebolavirus
[29] = source organism: Bacillus anthracis str. A0488

## YKEPNSIIL
HLA-A*01:01; [25]
  Kd: ≥ 20 µM
HLA-A*02:01 [1]; [25]
  Kd: ≥ 20 µM
HLA-A*26:01 [2]
  Kd: ≥ 20 µM
HLA-A*26:02 [3]
  Kd: ≥ 20 µM
HLA-A*68:02 [4]
  Kd: ≥ 20 µM
HLA-A*69:01 [5]
  Kd: ≥ 20 µM
HLA-B*07:02; [25]
  Kd: ≥ 20 µM
HLA-B*08:01
  Kd: ≥ 20 µM
HLA-B*08:02
  Kd: ≥ 20 µM
HLA-B*15:01 [6]; [25]
  Kd: ≥ 20 µM
HLA-B*15:17 [7]
  Kd: ≥ 20 µM
HLA-B*18:01 [8]; [25]
  Kd: ≥ 20 µM
HLA-B*27:05
  Kd: ≥ 20 µM
HLA-B*38:01; source organism: Variola virus
  Kd: 0.617 µM
HLA-B*39:01 [9]; [25]
  Kd: 0.0305 µM
HLA-B*40:01; [25]
  Kd: ≥ 20 µM
HLA-B*46:01 [10]; [25]
  Kd: ≥ 20 µM
HLA-B*57:01 [11]; [25]
  Kd: ≥ 20 µM
HLA-B*58:01; [25]
  Kd: ≥ 20 µM
HLA-A*30:01
  Kd: ≥ 20 µM
HLA-B*48:01 [12]
  Kd: 0.224 µM

## STTTCEAGV
HLA-A*02:01 [13]; [26]
  Kd: ≥ 20 µM
HLA-A*02:12
  Kd: 0.284 µM
HLA-A*02:19; [26]
  Kd: ≥ 20 µM
HLA-A*03:01; [26]
  Kd: ≥ 20 µM
HLA-A*23:01; [26]
  Kd: ≥ 20 µM
HLA-A*24:03; [26]
  Kd: ≥ 20 µM
HLA-A*26:01 [14]; [26]
  Kd: ≥ 20 µM
HLA-A*29:02; [26]
  Kd: ≥ 20 µM
HLA-B*15:01 [15]; [26]
  Kd: ≥ 20 µM
HLA-B*18:01 [16]; [26]
  Kd: ≥ 20 µM
HLA-B*27:03; [26]
  Kd: ≥ 20 µM
HLA-B*39:01 [17]
  Kd: ≥ 20 µM
HLA-B*46:01 [18]; [26]
  Kd: ≥ 20 µM
HLA-B*51:01; [26]
  Kd: ≥ 20 µM
HLA-B*57:01 [19]; [26]
  Kd: ≥ 20 µM

## SRTPSGKRL
HLA-A*01:01; [27]
  Kd: ≥ 20 µM
HLA-A*02:01 [1]; [27]
  Kd: ≥ 20 µM
HLA-B*07:02; [27]
  Kd: ≥ 20 µM
HLA-B*08:03
  Kd: ≥ 20 µM
HLA-B*15:01 [6]; [27]
  Kd: ≥ 20 µM
HLA-B*18:01 [8]; [27]
  Kd: ≥ 20 µM
HLA-B*38:01; source organism: Ravn virus - Ravn, Kenya, 1987
  Kd: ≥ 20 µM
HLA-B*39:01 [9]; [27]
  Kd: ≥ 20 µM
HLA-B*40:01; [27]
  Kd: ≥ 20 µM
HLA-B*46:01 [10]; [27]
  Kd: ≥ 20 µM
HLA-B*48:01 [20]
  Kd: ≥ 20 µM
HLA-B*57:01 [11]; [27]
  Kd: ≥ 20 µM
HLA-B*58:01; [27]
  Kd: ≥ 20 µM
HLA-A*26:01 [14]; [28]
  Kd: 2.12 µM
HLA-A*26:02 [21]
  Kd: 2.8 µM
HLA-A*68:02 [22]; [28]
  Kd: 3.11 µM

## KQGDVFYTA
HLA-A*02:01 [13]; [29]
  Kd: ≥ 20 µM
HLA-A*02:16
  Kd: 0.0514 µM
HLA-A*02:19; [29]
  Kd: ≥ 20 µM
HLA-A*03:01; [29]
  Kd: ≥ 20 µM
HLA-A*23:01; [29]
  Kd: ≥ 20 µM
HLA-A*24:03; [29]
  Kd: ≥ 20 µM
HLA-A*26:01 [14]; [29]
  Kd: ≥ 20 µM
HLA-A*29:02; [29]
  Kd: ≥ 20 µM
HLA-A*68:02 [22]; [29]
  Kd: ≥ 20 µM
HLA-A*69:01 [23]
  Kd: ≥ 20 µM
HLA-B*15:01 [15]; [29]
  Kd: ≥ 20 µM
HLA-B*15:17 [24]
  Kd: ≥ 20 µM
HLA-B*18:01 [16]; [29]
  Kd: ≥ 20 µM
HLA-B*27:03; [29]
  Kd: ≥ 20 µM
HLA-B*46:01 [18]; [29]
  Kd: ≥ 20 µM
HLA-B*51:01; [29]
  Kd: ≥ 20 µM
HLA-B*57:01 [19]; [29]
  Kd: ≥ 20 µM
